test: soluble on expression in E. coli; label from the status in PepcDB or PDB records

Soluble on expression in E. coli, not soluble:
MGSDKIHHHHHHMQWRRVLRFVNMEVVYVLGVKGGIGKTTFSLYFANQLSLTGKKVLYIDHDYFSFGSLILGHNDLGLLEEIENNLPIFSRSLKNINNLYILKLFSNPLDANKDYSLLSNSIPQVVNSIAKMGLDYVILDSSVGILPDNDIVIGLLEELDVEKKGVFLSDMLSVNSTIKYAKLWENAIKYKILVINMVPPIPEDLSEAMKIANKVYDDNNSKLFNTVVVVPFDEKMYNYKPLGNEYENERLNTILSCIVNRCNTLIIN
MGSDKIHHHHHHMQYREFGRTGVKTSLLGFGAMRLPVIGEDHSNIDEEKAIEMIRYAIDHGVNYVDTAYPYHGGNSEKVVGKALKDGYREKVFLATKSPVWQVEKHEDFERILDEQLEKLQTDHVDMYLMHALNKERWEKIKNLRFSDFFEKAKAKGKIRFAGFSFHDSYPVFKEIVDGYDWDFCQIQLNYMDVNYQAGLRGLKYAGSKGLAVVIMEPLKGGKLARLPEKVMEILRKYNKNWSPVELSFRWIGHHPEVSTILSGMSTLEQVKQNIDIMSKITPGNLTDEDMKMIEEIRKTLESFAVINCTQCGYCMPCPNGVDIPGNFRLYNETVMFEDWEGGRRTYKWLESQKSAASFCVECGECLSKCPQKLDIPNLLKKVHRELAEVK
MGSDKIHHHHHHMRAALAQGCDPMVLTGEVWPKWRIWTRDADRFLDDAPLNKLTAPAGIPLSSFRAATLKSVAERVSKGPLPDRAVWPWILALGARNTKRRSGLQYCPDCLRDDRIPYYRLQWRLAWHVGCEHHHCSLLDRCPHCRAPLEPHRLHAEDGHMAVCATCRGDLRDVGAITPCSDDAMAFQDAGDEAIRHGSGQFMAHPTETDAWFAGASFLSALLRRANRSDAEALHVFLERMGVAVPELPLNPGTGVELLGTAERHLLLGALWKLMRTDLADVSKYLQESGITRQGFVSKGERMPDLFAETFAQLPDNARGPRKQAVRDPGQPRPRHEVMRMWRRLQRKLEMSQR
MGSDKIHHHHHHMRDFSSDHSALALNTASLGHNLEGHGAGWTSEQVIDACAERGFGSIVFWRREIGERAVKIGERVRSAGLTVAGLCRTPFLVGTQATDVESVMDDFKRSIDMAAALGAPVLTIVVGGVHPGTKGVAESLKIVADRVAEAAPCAQASGVKLALEPLNPVYAGNRSCLTTLRDAVDLCDRIAAPNVGIAVDVYHVWWDTELERQLKRAGAERIYGYHLCDWLAETNDVLLDRGMMGDGVADLKAIRSFVEGAGYRGPCEVEIFSANDWWKRDPGEVLDVMVERFRNCC
MGSDKIHHHHHHMRDNMSRLEDLEAFIHIAESGSLTRAATRLNRSLQAVSRSLTSLEVDVGLQLVHRTTRHSALSEAGQAFYRRVKPAVLEIREAQLEAAGRRTGPSGILRVGAPMLFGPDFLVPIVAEYIESYPQAEVDLSLTDAFVDLASKGIDVVVRIADLPDSNLQSKRLGALRRVVFGAPSYFARNGRPEHPAELRQHACIVRTIGNRPGQWAFQIDGKRRMVGVRGSFRSNAMAAIYSAVRSGLGLGYSPLWQIRHLVDAGQVEIVLQEFEPKPVPIHALWQESTRPPAKVRAFVDLLAMRLRLDDL
MGSDKIHHHHHHMRFFIAIYEENNITAAATRCYVSQPSLSAGLKQLEEELGGPLFERSKKGVKALDSAHYLYPLAVKLVEEASKLPALFMAKASRQKLRLAVMPDLSQRRLAGLLTQINQAISHLDLELVDYQSTADCRLTLDSLRHEDEVFFPLWEEDYVLCVPTEHPLAQANRIRPEELSQYDFIECPPCEAHQQTIGLLACSNLSLNLVAKADSKSLVMSLVLAGFGVSFLPDGLIEDEPRLKQIKFDGPRMFRRIGLCYPSHQAVAPTLAKLLRYLTQATA
MGSDKIHHHHHHMRFGLDLGTTRTIAAAVDRGNYPIVTVEDSLGDTHDFIPSVVALKADRIVAGWDAIEVGQDHPSFVRSFKRLLSEPNVTEATPVYLGDHVHPLGAVLEAFAENVVTALRAFQTQLGDTSPIEVVIGVPANSHSAQRLLTMSAFSATGITVVGLVNEPSAAAFEYTHRHARTLNSKRQAIVVYDLGGGTFDSSLIRIDGTHHEVVSSIGISRLGGDDFDEILLQCALKAAGRQHDAFGKRAKNTLLDESRNAKEALVPQSRRLVLEIGDDDITVPVNKFYEAATPLVEKSLSIMEPLIGVDDLKDSDIAGIYLVGGGSSLPLVSRLLRERFGRRVHRSPFPSGSTAVGLAIAADPSSGFHLRDRVARGIGVFREHDSGRAVSFDPLIAPDTDSATVAKRCYKAVHNIGWFRFVEYSTVSEDGSPGDISLLSEIKIPFDSSITDVDATEISRFDGPEVEETITVNDNGVASISIKILGGVTVEHTI
MGSDKIHHHHHHMRFGYFDDVNREYVITTPQTPYPWINYLGTEDFFSIISHMAGGYCFYKDARLRRITRFRYNNVPTDAGGRYFYIREENGDFWTPTWMPVRKDLSFFEARHGLGYTKITGERNGLRATITYFVPRHFTGEVHYLVLENKAEKPRKIKLFSFIEFCLWNALDDMTNFQRNYSTGEVEIEGSVIYHKTEYRERRNHYAFYSVNQPIDGFDTDRESFIGLYSGFEAPQAVVEGKPRNSVASGWAPIASHYLEIELAPSEKKELIFILGYVENPEEEKWEKPGVINKKRAKEMIEKFKTGEDVEHALKELREYWDDLLGRIQVETHDEKLNRMVNIWNQYQCMVTFNISRSASYFESGISRGIGFRDSNQDILGFVHMIPEKARQRILDLASIQFEDGSTYHQFQPLTKKGNNEIGGGFNDDPLWLILSTSAYIKETGDWSILGEEVPFDNDPNKKASLFEHLKRSFYFTVNNLGPHGLPLIGRADWNDCLNLNCFSKNPDESFQTTVNALDGRVAESVFIAGLFVLAGKEFVEICKRRGLEEEAREAEKHVNKMIETTLKYGWDGEWFLRAYDAFGRKVGSKECEEGKIFIEPQGMCVMAGIGVDNGYAEKALDSVKKYLDTPYGLVLQQPAYSRYYIELGEISSYPPGYKENAGIFCHNNPWVAIAETVIGRGDRAFEIYRKITPAYLEDISEIHRTEPYVYAQMVAGKDAPRHGEAKNSWLTGTAAWSFVAITQHILGIRPTYDSLVVDPCIPKEWEGFRITRKFRGSIYDITVKNPSHVSKGVKEIIVDGKKIEGQVLPVFEDGKVHRVEVVMG
MGSDKIHHHHHHMRFYTKTHKYYCGIDLHARKKYVCILDSEGTVLVHREINCNPESFLRLVAPYREDLVVGVECMFAWYWLADLCRNEKIEFVLGHALYMKAVHGGKAKSDKIDAHKIAVLLRGGMFPLAYVYPPEMRATRDLLRRRNFFVRKRAELMAHIQNTVTQYNLAPLGIDLGVEENRHEVAQLFHDPEVRKIIEIDVAMIDAFDDVINVLEPDIEKTARQHNLHALKLLRSINGVGKVLGLVMLYEIHDINRFPTVQDFSSYCRLVKCAHESAGKKKGVGGSKIGNVHLKWAFSEAAVFFVRHNPQAKILMEKLVKIHGKGKAISILAHKLARAIFYMLKNNVPFDREKFLATA
MGSDKIHHHHHHMRHELDNPHAHATNNPCIRCLRHADRYARAVVSMLEVFASDKAEAKHNLFLKEGLCDIDKTLRSNDKRDTLRERPRNQTSSAMTLSPEKRARVMQGEILIDLNWLPDGVIGAKGSVFVEAEPPVVWRMLTDYDHLHETMPKVISSRLLETNNQTRIIAQSGKSGIFIFEKTVNFTLKVEEVFPEHLWFSQIGGDFQVYEGEWQLEAVEGKNGHATLLSYQAEIKPDFFAPQFVVSFVQSQDLPTILRAIRSYCEARAKG
MGSDKIHHHHHHMRIAYLSSAYLAPVEYYTKLLEYDKIYVEQHDHYIKQTYRNRCTIAGPDGELALSIPTVKPDTLKCPMKDIRISDHGNWRHLHWNAIESAYNSTPYFEYYKDDFRPFYEKKYEFLADFNEELCQLVCKLIDIQPCIERTSEYKTEFTTEETDFREIIHPKKDFQIADPEFVPHPYYQVFDSKLGFLPNLSIIDLLFNMGPESLLVLTSK
MGSDKIHHHHHHMRIDIDSFNVLQVLVEEGSFAKASERLHKAQSAVSYQVKKLEQHLGVTLFNRDKYRAELTPEGKVILIEGQRLLEQLANIEHLASRFSQGWEPKLELVIDGSLPMEPIMTALKRMSEHNVPTKIQLNMEFLGGVQHRFERDKADLMLVKDYRSGPYYDAKPLPSITSVLVVANSHPLALSKAVSLSQLQQHVELTIEDSSPSRLGRDELQFGGDKVFYLSGFIMKKNALLKGLGFGWMPDFLIGEELAAGELVMVDFMGGSRFNYTPQLVSTLARPLGRAGQLFTELILQEFDLFHQDLADGSSGSGLG
MGSDKIHHHHHHMRILILGAGKMGSFFTDILSFQHETAVFDVNPHQLRFVYNTYRFTTLEEIKEFEPELVINAATVKYTLDAFRKILPVLPKDCILSDIASVKTGLKKFYEESGFRYVSTHPMFGPTFASLSNLSSESAIIISESDHLGKVFFKDLYNSLNLNIFEYTFDEHDETVAYSLSIPFVSTFVFAAVMKHQEAPGTTFKKHMAIAKGLLSEDDYLLQEILFNPRTPSQVENIRTELKQLLEIITNKDAEGMKKYLTKIREKIK
MGSDKIHHHHHHMRISLSTGTLFTFPLGKVMRIAREAGFDGVELIINQDFQKVNCRKLIEELAEILPINSIHAPFMPLDGWGGPIDSLERCVELAAGAGIPLVNFHPPSWMGFEIGFWRWLYRVMDFQKEVGRETVIVTLENMPWVGTRFRVNPHILSNTEKLIEFIQERNLYMTFDTTHMGSGKANFINDFYHCYNSGRIRNIHFSDYGHGREHLIPGHGILPLTRFLNHLRSTDYADTLTLELSPEEFPRDERIIVESLREILQYLRRETSPA
MGSDKIHHHHHHMRKDDVVIVTCAITGAIHTPSMSPYLPVTPDQIVEEAVKAAEAGAGMVHIHARDPKDGRPTTDVEVFRYICREIKKQSDVVINVTTGGGGTLGIPVEERAKVVPALKPEIATFNMGSMNFAIHPLLKKYKEFKYDWEPEYLEMTRDIVFRNTFKDLEALSRIFKENDTKPELECYDIGQIYNTAFMFHEGYLEPPLRLQFIHGILGGIGTAVEDVLFMKQTADRLIGRENYTWSLVGAGRFQMPLGTLAVIMGGDVRVGLEDSLYIERGKLAKSNAEQVEKMVRIVKELGKRPATPDEVREILGLKGKERVNF
MGSDKIHHHHHHMRLDSISIANFRNHTLLEFEPGHSITNIYGRNGSGKTSILEAIHYCALTRGFSGNNDREYLKFGEELFTIRSSFTSGQGIATKVSITYSPKREKRILVNEQELQTFSSHIGTIPCVTFTPREMVIINGAPAERRRFIDTAICQYDRKYLSDLLLYRRILQQRNALLSSEQDPRVIDSALDVLTDQLVAIATEIVLVRKRFIEHFTSMLGGVYQWIPEGAEPSILYQSSLGHHENLYEKDKIQQVFRERFETLKQQELQRRQTLAGPHRDDLQFYLNKREIRKYASQGQQRAFLVAMKMTLQGYLYEASGEIPITLLDDLFSELDEVVSGTMVETLATKGQVIITSTEKKKGKGISFFSVDDYKSSKEP
MGSDKIHHHHHHMRLLFSTMFLYEYSTDMIAKAVNLAGYDGVEFWPETPYFWVDRAMEKLECLRDFDNAIHVPVLDLNPVSVNPDICNLTLRETLYSIALAAKIKAKPVTVHAGRRSAAREPVWADYLSLSRYLRISSRYAKIKGVTVGLENSENSINNLCKTADEVRKFAEEYDVMVTLDIKHALLNGGVEEFLELFGRICNVHVSYYDEKMRHVQPSRGKEVGDALKELAELGYDGPLTVELDDLGIGNLDFSKKVEILRKERRFVEKFFKR
